Measurements published in paper PMC4509546, “Structural Characterization of the Chaetomium thermophilum TREX-2 Complex and its Interaction with the mRNA Nuclear Export Factor Mex67:Mtr2” (Structure(London, England:1993), 2015).
Values belong to the molecule of their own block, whether it stands above or below them.

How the values were obtained:
[1] = target: GST-tagged ctNup145^(213-567) (Chaetomium thermophilum); assay: SPR; GST-tagged ligands captured by anti-GST antibody on CM5 chip; ctMex67:Mtr2 injected at 0.11-10 μM for 120 s, dissociation 600 s; BIAcore T200, 30 μl/min, 25°C, 20 mM Na-HEPES pH 7.5, 400 mM NaCl, 2 mM MgCl2, 5% glycerol, 0.01% NP-40; double exponential fits
[2] = target: GST-tagged ctMlp1^(1797-1960) (Chaetomium thermophilum); assay: as above
[3] = target: GST-tagged ctSac3N^(1-210) (Chaetomium thermophilum) (UniProt G0SGL4); assay: as above
[4] = target: T1, C. thermophilum TREX-2 CID region complex (ctSac3^CID:ctSus1:ctCdc31) (Chaetomium thermophilum, UniProt G0SGL4 1086-1170; G0S6Y1 1-168; G0SAR7 1-177); assay: SPR; ctSac3 CID region with the Sac3N FG region; who was immobilised is not told in the text (Figure S2); general SPR conditions: BIAcore T200, 25°C, 20 mM Na-HEPES pH 7.5, 400 mM NaCl, 2 mM MgCl2, 5% glycerol, 0.01% NP-40; conditions: both partners purified
T1 construct: as m1; Sus1, Chaetomium thermophilum, locus CTHT_0027270; as m2; as m3; Used here for the SPR of 'the ctSac3 CID region' with Sac3N; also called ctSac3 CID region; CID region of TREX-2; source: E. coli, co-expressed, purified (GSH, TEV cleavage, size-exclusion chromatography); copies: 1 + 1 + 1
T1 sequence 1: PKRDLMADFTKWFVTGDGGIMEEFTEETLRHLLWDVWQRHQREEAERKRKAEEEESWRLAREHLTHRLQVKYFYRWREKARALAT
T1 sequence 2: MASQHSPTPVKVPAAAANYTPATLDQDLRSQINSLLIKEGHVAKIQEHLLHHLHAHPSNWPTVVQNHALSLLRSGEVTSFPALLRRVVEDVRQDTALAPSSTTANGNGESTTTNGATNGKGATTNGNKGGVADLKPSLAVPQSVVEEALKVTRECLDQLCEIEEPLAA
T1 sequence 3: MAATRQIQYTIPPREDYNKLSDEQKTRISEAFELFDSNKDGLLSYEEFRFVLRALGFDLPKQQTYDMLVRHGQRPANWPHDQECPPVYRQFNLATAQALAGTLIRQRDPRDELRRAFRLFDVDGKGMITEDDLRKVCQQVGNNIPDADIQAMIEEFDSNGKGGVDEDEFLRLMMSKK

Sequence of GST-tagged ctMlp1^(1797-1960) (Chaetomium thermophilum) (G0SA56 1797-1960): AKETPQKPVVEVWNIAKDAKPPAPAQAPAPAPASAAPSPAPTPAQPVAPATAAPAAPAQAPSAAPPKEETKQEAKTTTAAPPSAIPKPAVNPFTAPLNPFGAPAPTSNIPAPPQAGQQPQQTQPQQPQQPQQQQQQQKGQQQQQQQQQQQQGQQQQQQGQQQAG

KD1 [1]: 238 nM
KD2 [1]: 264 nM
koff1 [1]: 0.071 s⁻¹
koff2 [1]: 0.0074 s⁻¹
kon1 [1]: 300000 M⁻¹ s⁻¹
kon2 [1]: 28000 M⁻¹ s⁻¹
KD1 [2]: 309 nM
KD2 [2]: 419 nM
koff1 [2]: 0.071 s⁻¹
koff2 [2]: 0.0088 s⁻¹
kon1 [2]: 230000 M⁻¹ s⁻¹
kon2 [2]: 21000 M⁻¹ s⁻¹
KD1 [3]: 39 nM
KD2 [3]: 148 nM
koff1 [3]: 0.073 s⁻¹
koff2 [3]: 0.0049 s⁻¹
kon1 [3]: 1.9e+06 M⁻¹ s⁻¹
kon2 [3]: 33000 M⁻¹ s⁻¹
Molecule: ctMex67:Mtr2 complex

Kd [4]: 2200 nM
koff [4]: 0.00052 s⁻¹
kon [4]: 235 M⁻¹ s⁻¹
B1: GST-tagged ctSac3N^(1-210) (domain or fragment, Chaetomium thermophilum, UniProt G0SGL4 1-210, looked up)
chain: MMAPANNPFGAPPAQVNNPFASPAPSNQGSSVFGAPAQSTFGAPSSNNPFGASSAKPSGAPAANPFGAPIKNPFGASAQNAQNKPFGAPTAGNGSSLAAANPFGAASGQTSAFGSTPAGSAPQSKGSSRQPSPAGRQNQSGRQQANLVGAPQGPSGKKRTPSPFDTRQRTQAPSKRAQASEESDSDAMSGRKSKGKGFGGLKSQPPAANK
notes: also called GST-Sac3N; GST-Sac3; source: E. coli (general method), captured on an anti-GST antibody-coated CM5 chip
